T1: ARHGAP21, Q5T5U3
T1 sequence (Q5T5U3 45-169, limits assumed, looked up): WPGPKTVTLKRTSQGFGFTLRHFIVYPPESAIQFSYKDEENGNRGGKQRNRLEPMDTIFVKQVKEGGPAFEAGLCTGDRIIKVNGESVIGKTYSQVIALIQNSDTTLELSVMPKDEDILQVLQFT

T2: HTRA3, P83110
T2 sequence (P83110 354-453, limits assumed, looked up): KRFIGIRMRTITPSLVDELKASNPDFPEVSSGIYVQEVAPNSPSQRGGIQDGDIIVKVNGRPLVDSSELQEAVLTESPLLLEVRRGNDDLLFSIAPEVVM

T3: GRIP1_3, Q9Y3R0
T3 sequence (Q9Y3R0 247-346, limits assumed, looked up): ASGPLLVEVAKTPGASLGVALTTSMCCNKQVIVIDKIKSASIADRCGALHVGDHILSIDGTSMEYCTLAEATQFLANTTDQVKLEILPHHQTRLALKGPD

T4: NHERF3_3, Q5T2W1
T4 sequence (Q5T2W1 238-333, limits assumed, looked up): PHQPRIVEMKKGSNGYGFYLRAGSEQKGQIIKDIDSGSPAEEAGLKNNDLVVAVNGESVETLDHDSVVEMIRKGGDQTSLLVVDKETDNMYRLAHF

T5: APBA2_2, Q99767
T5 sequence (Q99767 654-744, limits assumed, looked up): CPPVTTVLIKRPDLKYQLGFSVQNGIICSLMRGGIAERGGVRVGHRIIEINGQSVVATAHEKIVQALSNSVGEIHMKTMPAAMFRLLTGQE

T6: FRMPD1, Q5SYB0
T6 sequence (Q5SYB0 52-145, limits assumed, looked up): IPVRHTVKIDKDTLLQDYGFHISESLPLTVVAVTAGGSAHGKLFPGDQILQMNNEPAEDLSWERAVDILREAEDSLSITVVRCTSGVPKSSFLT

T7: TJP3_3, O95049
T7 sequence (O95049 375-456, limits assumed, looked up): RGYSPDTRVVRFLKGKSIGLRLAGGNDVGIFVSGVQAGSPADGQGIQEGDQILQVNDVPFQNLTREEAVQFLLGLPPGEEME

T8: PDZD7_3, Q9H5P4
T8 sequence (Q9H5P4 857-944, limits assumed, looked up): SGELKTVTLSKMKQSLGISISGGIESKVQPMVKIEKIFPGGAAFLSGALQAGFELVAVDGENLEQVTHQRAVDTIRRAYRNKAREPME

T9: LRRC7, Q96NW7
T9 sequence (Q96NW7 1440-1537, limits assumed, looked up): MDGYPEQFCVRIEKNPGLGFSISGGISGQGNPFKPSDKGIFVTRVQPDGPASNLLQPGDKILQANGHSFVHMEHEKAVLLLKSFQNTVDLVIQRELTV

T10: APBA2_1, Q99767
T10 sequence (Q99767 563-664, limits assumed, looked up): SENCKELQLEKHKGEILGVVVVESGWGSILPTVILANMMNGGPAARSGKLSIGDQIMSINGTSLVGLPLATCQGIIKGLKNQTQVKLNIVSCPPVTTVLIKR

T11: PDZD2_2, O15018
T11 sequence (O15018 329-429, limits assumed, looked up): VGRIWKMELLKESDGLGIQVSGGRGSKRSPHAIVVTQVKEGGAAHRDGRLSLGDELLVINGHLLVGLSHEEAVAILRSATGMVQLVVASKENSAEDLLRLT

T12: LNX2_3, Q8N448
T12 sequence (Q8N448 463-564, limits assumed, looked up): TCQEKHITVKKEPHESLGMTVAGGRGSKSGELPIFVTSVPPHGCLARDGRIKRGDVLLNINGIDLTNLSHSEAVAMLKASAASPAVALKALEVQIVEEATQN

T13: NHERF3_4, Q5T2W1
T13 sequence (Q5T2W1 373-468, limits assumed, looked up): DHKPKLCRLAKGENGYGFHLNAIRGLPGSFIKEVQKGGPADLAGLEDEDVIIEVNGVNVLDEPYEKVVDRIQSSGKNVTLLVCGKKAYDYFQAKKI


molecular target: T1, ARHGAP21, Q5T5U3; assay: holdup assay; set-up: key: below the threshold = too weak to quantify, mostly under pKd 3.1 to 4; details: plain residues with an end cap or a label only (N-terminal biotin on a linker: ado-ado)

Row | pKd | Binder
1 | below the threshold | NISARRFTLC [FAM167B, Q9BTA0]

molecular target: MAST1, Q9Y2H9; assay: holdup assay; set-up: key: below the threshold = too weak to quantify, mostly under pKd 3.1 to 4; details: plain residues with an end cap or a label only (N-terminal biotin on a linker: ado-ado)
Sequence (Q9Y2H9 962-1065): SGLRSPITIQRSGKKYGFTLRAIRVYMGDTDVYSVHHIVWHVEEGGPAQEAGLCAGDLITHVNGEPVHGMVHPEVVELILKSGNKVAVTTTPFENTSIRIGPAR

Row | pKd | Binder
2 | below the threshold | NISARRFTLC [FAM167B, Q9BTA0]

molecular target: T2, HTRA3, P83110; assay: holdup assay; set-up: key: below the threshold = too weak to quantify, mostly under pKd 3.1 to 4; details: plain residues with an end cap or a label only (N-terminal biotin on a linker: ado-ado)

Row | pKd | Binder
3 | 4.54 | NISARRFTLC [FAM167B, Q9BTA0]

molecular target: Inadl_3, Q8NI35; assay: holdup assay; set-up: key: below the threshold = too weak to quantify, mostly under pKd 3.1 to 4; details: plain residues with an end cap or a label only (N-terminal biotin on a linker: ado-ado)
Sequence (Q8NI35 359-469): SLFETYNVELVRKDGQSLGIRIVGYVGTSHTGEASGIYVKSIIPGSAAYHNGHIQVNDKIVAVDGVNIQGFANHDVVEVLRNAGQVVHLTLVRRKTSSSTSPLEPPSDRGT

Row | pKd | Binder
4 | below the threshold | NISARRFTLC [FAM167B, Q9BTA0]

molecular target: T3, GRIP1_3, Q9Y3R0; assay: holdup assay; set-up: key: below the threshold = too weak to quantify, mostly under pKd 3.1 to 4; details: plain residues with an end cap or a label only (N-terminal biotin on a linker: ado-ado)

Row | pKd | Binder
5 | below the threshold | NISARRFTLC [FAM167B, Q9BTA0]

molecular target: IL16_3, Q14005; assay: holdup assay; set-up: key: below the threshold = too weak to quantify, mostly under pKd 3.1 to 4; details: plain residues with an end cap or a label only (N-terminal biotin on a linker: ado-ado)
Sequence (Q14005 1107-1207): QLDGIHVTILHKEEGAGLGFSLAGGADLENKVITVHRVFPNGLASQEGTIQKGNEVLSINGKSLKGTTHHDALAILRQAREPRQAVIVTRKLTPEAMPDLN

Row | pKd | Binder
6 | below the threshold | NISARRFTLC [FAM167B, Q9BTA0]

molecular target: TJP1_3, Q07157; assay: holdup assay; set-up: key: below the threshold = too weak to quantify, mostly under pKd 3.1 to 4; details: plain residues with an end cap or a label only (N-terminal biotin on a linker: ado-ado)
Sequence (Q07157 416-512): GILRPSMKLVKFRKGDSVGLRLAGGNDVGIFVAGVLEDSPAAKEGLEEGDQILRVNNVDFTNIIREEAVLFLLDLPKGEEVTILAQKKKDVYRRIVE

Row | pKd | Binder
7 | below the threshold | NISARRFTLC [FAM167B, Q9BTA0]

molecular target: DLG1_1, Q12959; assay: holdup assay; set-up: key: below the threshold = too weak to quantify, mostly under pKd 3.1 to 4; details: plain residues with an end cap or a label only (N-terminal biotin on a linker: ado-ado)

Row | pKd | Binder
8 | 4.31 | NISARRFTLC [FAM167B, Q9BTA0]

molecular target: GRIP2_7, Q9C0E4; assay: holdup assay; set-up: key: below the threshold = too weak to quantify, mostly under pKd 3.1 to 4; details: plain residues with an end cap or a label only (N-terminal biotin on a linker: ado-ado)
Sequence (Q9C0E4 934-1023): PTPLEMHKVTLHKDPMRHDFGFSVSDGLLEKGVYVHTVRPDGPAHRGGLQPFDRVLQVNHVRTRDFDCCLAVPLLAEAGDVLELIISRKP

Row | pKd | Binder
9 | 3.81 | NISARRFTLC [FAM167B, Q9BTA0]

molecular target: T4, NHERF3_3, Q5T2W1; assay: holdup assay; set-up: key: below the threshold = too weak to quantify, mostly under pKd 3.1 to 4; details: plain residues with an end cap or a label only (N-terminal biotin on a linker: ado-ado)

Row | pKd | Binder
10 | below the threshold | NISARRFTLC [FAM167B, Q9BTA0]

molecular target: T5, APBA2_2, Q99767; assay: holdup assay; set-up: key: below the threshold = too weak to quantify, mostly under pKd 3.1 to 4; details: plain residues with an end cap or a label only (N-terminal biotin on a linker: ado-ado)

Row | pKd | Binder
11 | below the threshold | NISARRFTLC [FAM167B, Q9BTA0]

molecular target: GOPC, Q9HD26; assay: holdup assay; set-up: key: below the threshold = too weak to quantify, mostly under pKd 3.1 to 4; details: plain residues with an end cap or a label only (N-terminal biotin on a linker: ado-ado)

Row | pKd | Binder
12 | below the threshold | NISARRFTLC [FAM167B, Q9BTA0]

molecular target: Inadl_5, Q8NI35; assay: holdup assay; set-up: key: below the threshold = too weak to quantify, mostly under pKd 3.1 to 4; details: plain residues with an end cap or a label only (N-terminal biotin on a linker: ado-ado)
Sequence (Q8NI35 673-780): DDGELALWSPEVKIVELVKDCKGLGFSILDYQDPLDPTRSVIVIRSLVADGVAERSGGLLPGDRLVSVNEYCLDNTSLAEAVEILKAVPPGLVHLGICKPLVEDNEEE

Row | pKd | Binder
13 | below the threshold | NISARRFTLC [FAM167B, Q9BTA0]

molecular target: T6, FRMPD1, Q5SYB0; assay: holdup assay; set-up: key: below the threshold = too weak to quantify, mostly under pKd 3.1 to 4; details: plain residues with an end cap or a label only (N-terminal biotin on a linker: ado-ado)

Row | pKd | Binder
14 | below the threshold | NISARRFTLC [FAM167B, Q9BTA0]

molecular target: T7, TJP3_3, O95049; assay: holdup assay; set-up: key: below the threshold = too weak to quantify, mostly under pKd 3.1 to 4; details: plain residues with an end cap or a label only (N-terminal biotin on a linker: ado-ado)

Row | pKd | Binder
15 | below the threshold | NISARRFTLC [FAM167B, Q9BTA0]

molecular target: T8, PDZD7_3, Q9H5P4; assay: holdup assay; set-up: key: below the threshold = too weak to quantify, mostly under pKd 3.1 to 4; details: plain residues with an end cap or a label only (N-terminal biotin on a linker: ado-ado)

Row | pKd | Binder
16 | 3.88 | NISARRFTLC [FAM167B, Q9BTA0]

molecular target: LNX1_1, Q8TBB1; assay: holdup assay; set-up: key: below the threshold = too weak to quantify, mostly under pKd 3.1 to 4; details: plain residues with an end cap or a label only (N-terminal biotin on a linker: ado-ado)
Sequence (Q8TBB1 261-371): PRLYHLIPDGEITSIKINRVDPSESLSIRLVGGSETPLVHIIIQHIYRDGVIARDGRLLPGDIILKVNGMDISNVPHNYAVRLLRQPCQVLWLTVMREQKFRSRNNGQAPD

Row | pKd | Binder
17 | 3.85 | NISARRFTLC [FAM167B, Q9BTA0]

molecular target: FRMPD3, Q5JV73; assay: holdup assay; set-up: key: below the threshold = too weak to quantify, mostly under pKd 3.1 to 4; details: plain residues with an end cap or a label only (N-terminal biotin on a linker: ado-ado)
Sequence (Q5JV73 12-100): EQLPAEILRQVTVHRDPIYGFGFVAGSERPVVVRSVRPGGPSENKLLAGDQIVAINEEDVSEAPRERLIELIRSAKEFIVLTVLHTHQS

Row | pKd | Binder
18 | below the threshold | NISARRFTLC [FAM167B, Q9BTA0]

molecular target: T9, LRRC7, Q96NW7; assay: holdup assay; set-up: key: below the threshold = too weak to quantify, mostly under pKd 3.1 to 4; details: plain residues with an end cap or a label only (N-terminal biotin on a linker: ado-ado)

Row | pKd | Binder
19 | below the threshold | NISARRFTLC [FAM167B, Q9BTA0]

molecular target: T10, APBA2_1, Q99767; assay: holdup assay; set-up: key: below the threshold = too weak to quantify, mostly under pKd 3.1 to 4; details: plain residues with an end cap or a label only (N-terminal biotin on a linker: ado-ado)

Row | pKd | Binder
20 | below the threshold | NISARRFTLC [FAM167B, Q9BTA0]

molecular target: T11, PDZD2_2, O15018; assay: holdup assay; set-up: key: below the threshold = too weak to quantify, mostly under pKd 3.1 to 4; details: plain residues with an end cap or a label only (N-terminal biotin on a linker: ado-ado)

Row | pKd | Binder
21 | below the threshold | NISARRFTLC [FAM167B, Q9BTA0]

molecular target: Inadl_9, Q8NI35; assay: holdup assay; set-up: key: below the threshold = too weak to quantify, mostly under pKd 3.1 to 4; details: plain residues with an end cap or a label only (N-terminal biotin on a linker: ado-ado)
Sequence (Q8NI35 1530-1615): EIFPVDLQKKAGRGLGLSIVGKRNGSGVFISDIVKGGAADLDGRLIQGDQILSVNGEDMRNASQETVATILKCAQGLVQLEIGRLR

Row | pKd | Binder
22 | below the threshold | NISARRFTLC [FAM167B, Q9BTA0]

molecular target: T12, LNX2_3, Q8N448; assay: holdup assay; set-up: key: below the threshold = too weak to quantify, mostly under pKd 3.1 to 4; details: plain residues with an end cap or a label only (N-terminal biotin on a linker: ado-ado)

Row | pKd | Binder
23 | below the threshold | NISARRFTLC [FAM167B, Q9BTA0]

molecular target: T13, NHERF3_4, Q5T2W1; assay: holdup assay; set-up: key: below the threshold = too weak to quantify, mostly under pKd 3.1 to 4; details: plain residues with an end cap or a label only (N-terminal biotin on a linker: ado-ado)

Row | pKd | Binder
24 | below the threshold | NISARRFTLC [FAM167B, Q9BTA0]

molecular target: DLG2_3, Q15700; assay: holdup assay; set-up: key: below the threshold = too weak to quantify, mostly under pKd 3.1 to 4; details: plain residues with an end cap or a label only (N-terminal biotin on a linker: ado-ado)

Row | pKd | Binder
25 | 4.43 | NISARRFTLC [FAM167B, Q9BTA0]
